B1: AB1879-TriNKET® (bispecific antibody, human IgG1, kappa)
chain: DIQLTQSPSSLSASVGDRVTITCRASQGVSTSTYTYMHWFQQKPGKAPKLLIKFASNLESGVPSRFSGSGSGTDFTLTISSLQPEDFATYYCQHSWEIPWTFGCGTKVEIKGGGGSGGGGSGGGGSGGGGSEVQLVESGGGLVQPGGSLRLSCAASGFTFSDYGMHWVRQAPGKCLEWVSYISSGSSTFYYADTVKGRFTISRDNAKNSLYLQMNSLRAEDTAVYYCGSSQSYYRGTMDYWGQGTTVTVSSGSDKTHTCPPCPAPELLGGPSVFLFPPKPKDTLMISRTPEVTCVVVDVSHEDPEVKFNWYVDGVEVHNAKTKPREEQYNSTYRVVSVLTVLHQDWLNGKEYKCKVSNKALPAPIEKTISKAKGQPREPRVYTLPPCRDELTKNQVSLTCLVKGFYPSDIAVEWESNGQPENNYKTTPPVLVSDGSFTLYSKLTVDKSRWQQGNVFSCSVMHEALHNHYTQKSLSLSPG
heavy: EVQLVESGGGLVKPGGSLRLSCAASGFTFSSYSMNWVRQAPGKGLEWVSSISSSSSYIYYADSVKGRFTISRDNAKNSLYLQMNSLRAEDTAVYYCARGAPIGAAAGWFDPWGQGTLVTVSSASTKGPSVFPLAPSSKSTSGGTAALGCLVKDYFPEPVTVSWNSGALTSGVHTFPAVLQSSGLYSLSSVVTVPSSSLGTQTYICNVNHKPSNTKVDKKVEPKSCDKTHTCPPCPAPELLGGPSVFLFPPKPKDTLMISRTPEVTCVVVDVSHEDPEVKFNWYVDGVEVHNAKTKPREEQYNSTYRVVSVLTVLHQDWLNGKEYKCKVSNKALPAPIEKTISKAKGQPREPQVCTLPPSRDELTENQVSLTCLVKGFYPSDIAVEWESNGQPENNYKTTPPVLDSDGSFFLYSWLTVDKSRWQQGNVFSCSVMHEALHNHYTQKSLSLSPG
light: DIQMTQSPSSVSASVGDRVTITCRASQGISSWLAWYQQKPGKAPKLLIYAASSLQSGVPSRFSGSGSGTDFTLTISSLQPEDFATYYCQQGVSFPRTFGGGTKVEIKRTVAAPSVFIFPPSDEQLKSGTASVVCLLNNFYPREAKVQWKVDNALQSGNSQESVTEQDSKDSTYSLSSTLTLSKADYEKHKVYACEVTHQGLSSPVTKSFNRGEC
notes: F3′ format; also called AB1879-VL-VH TriNKET®; 11F09-IGHV3-48*01 BM1-YB
B2: AB1888-TriNKET® (bispecific antibody, human IgG1, kappa)
chain: DIQLTQSPSSLSASVGDRVTITCRASQGVSTSTYTYMHWFQQKPGKAPKLLIKFASNLESGVPSRFSGSGSGTDFTLTISSLQPEDFATYYCQHSWEIPWTFGCGTKVEIKGGGGSGGGGSGGGGSGGGGSEVQLVESGGGLVKPGGSLRLSCAASGFTFSDYGMHWVRQAPGKCLEWVSYISSGSSTFYYADTVKGRFTISRDNAKNSLYLQMNSLRAEDTAVYYCGSSQSYYRGTMDYWGQGTTVTVSSGSDKTHTCPPCPAPELLGGPSVFLFPPKPKDTLMISRTPEVTCVVVDVSHEDPEVKFNWYVDGVEVHNAKTKPREEQYNSTYRVVSVLTVLHQDWLNGKEYKCKVSNKALPAPIEKTISKAKGQPREPRVYTLPPCRDELTKNQVSLTCLVKGFYPSDIAVEWESNGQPENNYKTTPPVLVSDGSFTLYSKLTVDKSRWQQGNVFSCSVMHEALHNHYTQKSLSLSPG
heavy: EVQLVESGGGLVKPGGSLRLSCAASGFTFSSYSMNWVRQAPGKGLEWVSSISSSSSYIYYADSVKGRFTISRDNAKNSLYLQMNSLRAEDTAVYYCARGAPIGAAAGWFDPWGQGTLVTVSSASTKGPSVFPLAPSSKSTSGGTAALGCLVKDYFPEPVTVSWNSGALTSGVHTFPAVLQSSGLYSLSSVVTVPSSSLGTQTYICNVNHKPSNTKVDKKVEPKSCDKTHTCPPCPAPELLGGPSVFLFPPKPKDTLMISRTPEVTCVVVDVSHEDPEVKFNWYVDGVEVHNAKTKPREEQYNSTYRVVSVLTVLHQDWLNGKEYKCKVSNKALPAPIEKTISKAKGQPREPQVCTLPPSRDELTENQVSLTCLVKGFYPSDIAVEWESNGQPENNYKTTPPVLDSDGSFFLYSWLTVDKSRWQQGNVFSCSVMHEALHNHYTQKSLSLSPG
light: DIQMTQSPSSVSASVGDRVTITCRASQGISSWLAWYQQKPGKAPKLLIYAASSLQSGVPSRFSGSGSGTDFTLTISSLQPEDFATYYCQQGVSFPRTFGGGTKVEIKRTVAAPSVFIFPPSDEQLKSGTASVVCLLNNFYPREAKVQWKVDNALQSGNSQESVTEQDSKDSTYSLSSTLTLSKADYEKHKVYACEVTHQGLSSPVTKSFNRGEC
notes: F3′ format; also called AB1888-VL-VH TriNKET®; 11F09-IGHV3-21*05 BM1-YB
B3: AB1883-TriNKET® (bispecific antibody, human IgG1, kappa)
chain: DIQLTQSPSSLSASVGDRVTITCRASQGVSTSTYTYMHWFQQKPGKAPKLLIKFASNLESGVPSRFSGSGSGTDFTLTISSLQPEDFATYYCQHSWEIPWTFGCGTKVEIKGGGGSGGGGSGGGGSGGGGSQVQLVESGGGLVKPGGSLRLSCAASGFTFSDYGMHWVRQAPGKCLEWLAYISSGSSTFYYADTVKGRFTISRDNAKNSLYLQMNSLRAEDTAVYYCGSSQSYYRGTMDYWGQGTTVTVSSGSDKTHTCPPCPAPELLGGPSVFLFPPKPKDTLMISRTPEVTCVVVDVSHEDPEVKFNWYVDGVEVHNAKTKPREEQYNSTYRVVSVLTVLHQDWLNGKEYKCKVSNKALPAPIEKTISKAKGQPREPRVYTLPPCRDELTKNQVSLTCLVKGFYPSDIAVEWESNGQPENNYKTTPPVLVSDGSFTLYSKLTVDKSRWQQGNVFSCSVMHEALHNHYTQKSLSLSPG
heavy: EVQLVESGGGLVKPGGSLRLSCAASGFTFSSYSMNWVRQAPGKGLEWVSSISSSSSYIYYADSVKGRFTISRDNAKNSLYLQMNSLRAEDTAVYYCARGAPIGAAAGWFDPWGQGTLVTVSSASTKGPSVFPLAPSSKSTSGGTAALGCLVKDYFPEPVTVSWNSGALTSGVHTFPAVLQSSGLYSLSSVVTVPSSSLGTQTYICNVNHKPSNTKVDKKVEPKSCDKTHTCPPCPAPELLGGPSVFLFPPKPKDTLMISRTPEVTCVVVDVSHEDPEVKFNWYVDGVEVHNAKTKPREEQYNSTYRVVSVLTVLHQDWLNGKEYKCKVSNKALPAPIEKTISKAKGQPREPQVCTLPPSRDELTENQVSLTCLVKGFYPSDIAVEWESNGQPENNYKTTPPVLDSDGSFFLYSWLTVDKSRWQQGNVFSCSVMHEALHNHYTQKSLSLSPG
light: DIQMTQSPSSVSASVGDRVTITCRASQGISSWLAWYQQKPGKAPKLLIYAASSLQSGVPSRFSGSGSGTDFTLTISSLQPEDFATYYCQQGVSFPRTFGGGTKVEIKRTVAAPSVFIFPPSDEQLKSGTASVVCLLNNFYPREAKVQWKVDNALQSGNSQESVTEQDSKDSTYSLSSTLTLSKADYEKHKVYACEVTHQGLSSPVTKSFNRGEC
notes: F3′ format; also called AB1883-VL-VH TriNKET®; 11F09-IGHV3-11*01 BM2-YB
B4: AB1889-TriNKET® (bispecific antibody, human IgG1, kappa)
chain: DIQLTQSPSSLSASVGDRVTITCRASQGVSTSTYTYMHWFQQKPGKAPKLLIKFASNLESGVPSRFSGSGSGTDFTLTISSLQPEDFATYYCQHSWEIPWTFGCGTKVEIKGGGGSGGGGSGGGGSGGGGSEVQLVESGGGLVQPGGSLRLSCAASGFTFSDYGMHWVRQAPGKCLEWLAYISSGSSTFYYADTVKGRFTISRDNAKNSLYLQMNSLRAEDTAVYYCGSSQSYYRGTMDYWGQGTTVTVSSGSDKTHTCPPCPAPELLGGPSVFLFPPKPKDTLMISRTPEVTCVVVDVSHEDPEVKFNWYVDGVEVHNAKTKPREEQYNSTYRVVSVLTVLHQDWLNGKEYKCKVSNKALPAPIEKTISKAKGQPREPRVYTLPPCRDELTKNQVSLTCLVKGFYPSDIAVEWESNGQPENNYKTTPPVLVSDGSFTLYSKLTVDKSRWQQGNVFSCSVMHEALHNHYTQKSLSLSPG
heavy: EVQLVESGGGLVKPGGSLRLSCAASGFTFSSYSMNWVRQAPGKGLEWVSSISSSSSYIYYADSVKGRFTISRDNAKNSLYLQMNSLRAEDTAVYYCARGAPIGAAAGWFDPWGQGTLVTVSSASTKGPSVFPLAPSSKSTSGGTAALGCLVKDYFPEPVTVSWNSGALTSGVHTFPAVLQSSGLYSLSSVVTVPSSSLGTQTYICNVNHKPSNTKVDKKVEPKSCDKTHTCPPCPAPELLGGPSVFLFPPKPKDTLMISRTPEVTCVVVDVSHEDPEVKFNWYVDGVEVHNAKTKPREEQYNSTYRVVSVLTVLHQDWLNGKEYKCKVSNKALPAPIEKTISKAKGQPREPQVCTLPPSRDELTENQVSLTCLVKGFYPSDIAVEWESNGQPENNYKTTPPVLDSDGSFFLYSWLTVDKSRWQQGNVFSCSVMHEALHNHYTQKSLSLSPG
light: DIQMTQSPSSVSASVGDRVTITCRASQGISSWLAWYQQKPGKAPKLLIYAASSLQSGVPSRFSGSGSGTDFTLTISSLQPEDFATYYCQQGVSFPRTFGGGTKVEIKRTVAAPSVFIFPPSDEQLKSGTASVVCLLNNFYPREAKVQWKVDNALQSGNSQESVTEQDSKDSTYSLSSTLTLSKADYEKHKVYACEVTHQGLSSPVTKSFNRGEC
notes: F3′ format; also called AB1889-VL-VH TriNKET®; 11F09-IGHV3-48*01 BM2-YB
B5: AB1880-TriNKET® (bispecific antibody, human IgG1, kappa)
chain: DIQLTQSPSSLSASVGDRVTITCRASQGVSTSTYTYMHWFQQKPGKAPKLLIKFASNLESGVPSRFSGSGSGTDFTLTISSLQPEDFATYYCQHSWEIPWTFGCGTKVEIKGGGGSGGGGSGGGGSGGGGSEVQLVESGGGLVKPGGSLRLSCEASGFTFSDYGMHWVRQAPGKCLEWLAYISSGSSTFYYADTVKGRFTISRDNAKNSLYLQMNSLRAEDTAVYYCGSSQSYYRGTMDYWGQGTTVTVSSGSDKTHTCPPCPAPELLGGPSVFLFPPKPKDTLMISRTPEVTCVVVDVSHEDPEVKFNWYVDGVEVHNAKTKPREEQYNSTYRVVSVLTVLHQDWLNGKEYKCKVSNKALPAPIEKTISKAKGQPREPRVYTLPPCRDELTKNQVSLTCLVKGFYPSDIAVEWESNGQPENNYKTTPPVLVSDGSFTLYSKLTVDKSRWQQGNVFSCSVMHEALHNHYTQKSLSLSPG
heavy: EVQLVESGGGLVKPGGSLRLSCAASGFTFSSYSMNWVRQAPGKGLEWVSSISSSSSYIYYADSVKGRFTISRDNAKNSLYLQMNSLRAEDTAVYYCARGAPIGAAAGWFDPWGQGTLVTVSSASTKGPSVFPLAPSSKSTSGGTAALGCLVKDYFPEPVTVSWNSGALTSGVHTFPAVLQSSGLYSLSSVVTVPSSSLGTQTYICNVNHKPSNTKVDKKVEPKSCDKTHTCPPCPAPELLGGPSVFLFPPKPKDTLMISRTPEVTCVVVDVSHEDPEVKFNWYVDGVEVHNAKTKPREEQYNSTYRVVSVLTVLHQDWLNGKEYKCKVSNKALPAPIEKTISKAKGQPREPQVCTLPPSRDELTENQVSLTCLVKGFYPSDIAVEWESNGQPENNYKTTPPVLDSDGSFFLYSWLTVDKSRWQQGNVFSCSVMHEALHNHYTQKSLSLSPG
light: DIQMTQSPSSVSASVGDRVTITCRASQGISSWLAWYQQKPGKAPKLLIYAASSLQSGVPSRFSGSGSGTDFTLTISSLQPEDFATYYCQQGVSFPRTFGGGTKVEIKRTVAAPSVFIFPPSDEQLKSGTASVVCLLNNFYPREAKVQWKVDNALQSGNSQESVTEQDSKDSTYSLSSTLTLSKADYEKHKVYACEVTHQGLSSPVTKSFNRGEC
notes: F3′ format; also called AB1880-VL-VH TriNKET®; 11F09-IGHV3-21*05 BM2-YB

Biological target: T1, human 5T4 on the cell surface (human, UniProt Q13641 32-420)
T1 construct: whole, on cells; also called h5T4; TPBG
T1 sequence (looked up): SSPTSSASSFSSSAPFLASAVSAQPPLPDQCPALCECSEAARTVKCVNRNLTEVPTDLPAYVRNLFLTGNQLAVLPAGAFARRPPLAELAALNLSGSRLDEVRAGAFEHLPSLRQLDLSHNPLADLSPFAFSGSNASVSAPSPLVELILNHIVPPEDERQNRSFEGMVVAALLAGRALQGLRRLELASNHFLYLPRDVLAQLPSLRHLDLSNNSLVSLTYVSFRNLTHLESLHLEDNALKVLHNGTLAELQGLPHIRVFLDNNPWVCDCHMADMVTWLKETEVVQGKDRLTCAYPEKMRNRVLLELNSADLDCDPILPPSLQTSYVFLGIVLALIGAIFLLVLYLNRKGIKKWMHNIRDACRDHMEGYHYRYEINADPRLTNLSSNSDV
Assay: cell binding assay on 5T4-expressing tumor cells (cell line not given)

| Binder | EC50 | Max Fold Over Background (FOB) |
| --- | --- | --- |
| B1 | 9.18 nM | 62.9 fold over background |
| B2 | 18.5 nM | 22.1 fold over background |
| B3 | 6.02 nM | 69.4 fold over background |
| B4 | 20.7 nM | 11.7 fold over background |
| B5 | 21.7 nM | 48.5 fold over background |

— US20230203202A1 (DRAGONFLY THERAPEUTICS, published 2023)
